Results as given in article PMC10350917 (Journal of Medicinal Chemistry, 2023).
“And” between values parts separate entries of the source, which are not always exact repeats. Equal values may be shown once.

Columns and labels:
[1] = test system: CO/N=C(\C(=O)N[C@@H]1C(=O)N2C(C(=O)[O-])=C(C[N+]3(C)CCCC3)CS[C@H]12)c1csc(N)n1; test: purified protein, by the assay type; settings: 50 mM NaH2PO4 pH 7.4, room temperature
[2] = test system: CC(=O)OCC1=C(C(=O)O)N2C(=O)[C@@H](NC(=O)Cc3cccs3)[C@H]2SC1; test: purified protein, by the assay type; settings: 50 mM NaH2PO4 pH 7.4, room temperature
[3] = test system: O=C(Cc1cccs1)N[C@@H]1C(=O)N2C(C(=O)O)=C(/C=C/c3ccc([N+](=O)[O-])cc3[N+](=O)[O-])CS[C@H]12; test: purified protein, by the assay type; settings: 50 mM NaH2PO4 pH 7.4, room temperature
[4] = test system: CC(C)(O/N=C(\C(=O)N[C@@H]1C(=O)N2C(C(=O)[O-])=C(C[N+]3(CCNC(=O)c4ccc(O)c(O)c4Cl)CCCC3)CS[C@H]12)c1csc(N)n1)C(=O)O; test: purified protein, by the assay type; settings: 50 mM NaH2PO4 pH 7.4, room temperature
[5] = test system: CC(C)(O/N=C(\C(=O)N[C@@H]1C(=O)N2C(C(=O)[O-])=C(C[n+]3ccccc3)CS[C@H]12)c1csc(N)n1)C(=O)O; test: purified protein, by the assay type; settings: 50 mM NaH2PO4 pH 7.4, room temperature
[6] = test system: Cn1c(N)c(NC(=O)NCCN)c[n+]1CC1=C(C(=O)O)N2C(=O)[C@@H](NC(=O)/C(=N\OC(C)(C)C(=O)[O-])c3nsc(N)n3)[C@H]2SC1; test: purified protein, by the assay type; settings: 50 mM NaH2PO4 pH 7.4, room temperature
[7] = biological target: ADC-162 (Acinetobacter baumannii, UniProt A0A2H4PPJ8); test: Inhibition kinetics (competition with nitrocefin), ADC-162; format: biochemical
Method: (§1) For inhibition kinetics, utilizing nitrocefin (NCF) as a colorimetric substrate, the inhibition constant (Ki) of MB076 and S02030 BATSI with ADCs was determined using competition kinetics as previously described.[10],[25],[28],[34] The measurements of the initial velocities were performed with the addition of 100 μM NCF after a 3 min pre-incubation of the enzyme (2 nM) with increasing concentration of the inhibitor. […] The Ki value was corrected for the NCF affinity (KM values for each ADC variant listed in Table 1) with the Cheng–Prusoff[35] equation: [drawing 2]

[8] = biological target: T1, ADC-33 (Acinetobacter baumannii, UniProt A7Y407); test: Inhibition kinetics (competition with nitrocefin), ADC-33; format: biochemical; settings: 100 μM nitrocefin, 3 min pre-incubation
Method: as §1

[9] = biological target: ADC-7 (Acinetobacter baumannii, UniProt Q6DRA1); settings: ref [10]; cited from earlier work
[10] = in vitro; settings: human, plasma, pH 7.4
Method: (§2) The in vitro stability of MB076 and S02030 was evaluated by incubating the compounds in both buffer (pH 7.4) and human plasma at 37 °C over 48 h. Half-lives (t1/2) were then calculated for each compound.
(§3) Plasma and buffer stability samples were analyzed by monitoring the disappearance of the compounds using high-performance liquid chromatography-mass spectrometry (LC–MS) techniques.
Half-lives (t1/2) were calculated in Origin using a one-phase decay model with t1/2 = ln(2)/b, where b is the slope of a linear plot of natural logarithm (ln) of the remaining compound concentration (C) versus incubation time. Each condition was tested in triplicate.

[11] = test system: KPC-2; settings: ref [14],[25]; cited from earlier work
[12] = test system: SHV-1; settings: ref [14],[25]; cited from earlier work
[13] = physchem; settings: buffer, pH 7.4
Method: as §2, §3
Standard solutions were prepared by adding the compound in DMSO (2.5 μM) to 0.1 M phosphate buffer pH 7.4 and MeOH. Solutions were vortexed, filtered, and analyzed by LC–MS (At=0). Samples were then prepared by adding a solution of the compound in DMSO (2.5 μM) to phosphate buffer pH 7.4 and incubating at 37 °C. At suitable time intervals, the reaction was stopped by the addition of MeOH. The solutions were vortexed and filtered. Degradation time courses were followed by LC–MS enabling the quantitation of compounds. Half-lives (t1/2) were calculated in Origin using a one-phase decay model with t1/2 = ln(2)/b, where b is the slope of a linear plot of natural logarithm (ln) of the remaining compound concentration (C) versus incubation time. Each condition was tested in triplicate.

[14] = biological target: ADC variants; test: Inhibition kinetics, statement for all ADC variants; format: biochemical, Acinetobacter baumannii; settings: bound stated for all ADC variants of the study
Method: as §1

[15] = biological target: ADC-30 (Acinetobacter baumannii, UniProt A7XM81); test: Inhibition kinetics (competition with nitrocefin), ADC-30; format: biochemical; settings: 100 μM nitrocefin, 3 min pre-incubation
Method: as §1

[16] = test system: ADC-212 in pBCSK(−) E. coli DH10B; test: Broth microdilution AST, ADC-212; format: cell-based; settings: Escherichia coli, E. coli DH10B ADC-212, MB076 fixed at 10 mg/L in combinations, FDC in iron-depleted broth
Method: (§4) Susceptibility testing to standard antibiotics was performed by broth microdilution or agar dilution using an Oxoid replicator according to 2021 Clinical and Laboratory Standards Institute (CLSI) guidelines. MICs for CAZ, CTX, FEP, and TOL were determined using cation-adjusted Mueller Hinton MH broth, and MICs for FDC were done in iron-depleted cation-adjusted MH broth according to CLSI methods. MB076, S02030, and VAB were used at a fixed concentration of 10 mg/L. All MICs were interpreted according to the 2021 CLSI guidelines.[43]
(§5) blaADC-7 pBCSK- was cloned and expressed in E. coli DH10B cells as previously described.[44] All other blaADC variants were synthesized by GenScript according to the blaADC-7 pBCSK- strategy, cloning into the XbaI/BamHI sites of the pBCSK- vector.

[17] = test system: ADC-7 in pBCSK(−) E. coli DH10B; test: Broth microdilution AST, ADC-7; format: cell-based; settings: Escherichia coli, E. coli DH10B ADC-7, MB076 fixed at 10 mg/L in combinations, FDC in iron-depleted broth
Method: as §4, §5

[18] = test system: ADC-219 in pBCSK(−) E. coli DH10B; test: Broth microdilution AST, ADC-219; format: cell-based; settings: Escherichia coli, E. coli DH10B ADC-219, MB076 fixed at 10 mg/L in combinations, FDC in iron-depleted broth
Method: as §4, §5

[19] = test system: ADC-30 in pBCSK(−) E. coli DH10B; test: Broth microdilution AST, ADC-30; format: cell-based; settings: Escherichia coli, E. coli DH10B ADC-30, MB076 fixed at 10 mg/L in combinations, FDC in iron-depleted broth
Method: as §4, §5

[20] = test system: ADC-33 in pBCSK(−) E. coli DH10B; test: Broth microdilution AST, ADC-33; format: cell-based; settings: Escherichia coli, E. coli DH10B ADC-33, MB076 fixed at 10 mg/L in combinations, FDC in iron-depleted broth
Method: as §4, §5

[21] = biological target: T1, ADC-33; settings: ADC-33; substrate
Method: Steady-state kinetic parameters were determined by combining pure enzyme with antibiotic substrates in 50 mM NaH2PO4, pH 7.4 at room temperature. Changes in absorbance were measured on a Cary 60 UV–Vis spectrophotometer (Agilent Technologies) and converted to velocity using the change in extinction coefficient specific to nitrocefin (ε482 = 17,400 M^–1·cm^–1), cephalothin (ε262 = 7660 M^–1·cm^–1), ceftazidime (ε260 = 8660 M^–1·cm^–1), cefotaxime (ε260 = 7500 M^–1·cm^–1), cefepime (ε260 = 750 M^–1·cm^–1), cefiderocol (ε259 = 9430 M^–1·cm^–1), and ceftolozane (ε254 = 6810 M^–1·cm^–1). Initial velocities were fit to the Michaelis–Menten equation yielding kcat and KM values. For ADC/substrate combinations in which the KM was too large to accurately determine both kcat and KM values, the initial velocities at kcat/KM values were calculated from linear fits of vo in low [S] ranges (<0.08 × KM).

ADC-33 (Acinetobacter baumannii)
kcat/Km ([1]; other: ADC-33, substrate): 16900 M⁻¹ s⁻¹ | Km ([2]; other: ADC-33, substrate): 95.3 ± 3.5 µM | kcat ([2]; other: ADC-33, substrate): 347 ± 4.5 s⁻¹ | kcat/Km ([2]; other: ADC-33, substrate): 3.64e+06 ± 180000 M⁻¹ s⁻¹ | Km ([3]; other: ADC-33, substrate): 45.8 ± 6.07 µM | kcat ([3]; other: ADC-33, substrate): 707 ± 28.2 s⁻¹ | kcat/Km ([3]; other: ADC-33, substrate): 1.54e+07 ± 2.66e+06 M⁻¹ s⁻¹ | Km ([4]; other: ADC-33, substrate): 107 µM and 107.2 ± 13.8 µM | kcat ([4]; other: ADC-33, substrate): 0.6 ± 0.0315 s⁻¹ | kcat/Km ([4]; other: ADC-33, substrate): 5600 ± 1000 M⁻¹ s⁻¹ | Km ([5]; other: ADC-33, substrate): 59.3 ± 7.80 µM | kcat ([5]; other: ADC-33, substrate): 3.71 ± 0.088 s⁻¹ | kcat/Km ([5]; other: ADC-33, substrate): 62600 ± 9700 M⁻¹ s⁻¹ | Km ([6]; other: ADC-33, substrate): 219.3 ± 21.6 µM | kcat ([6]; other: ADC-33, substrate): 4.23 ± 0.18 s⁻¹ | kcat/Km ([6]; other: ADC-33, substrate): 19300 ± 2700 M⁻¹ s⁻¹

O=C(Cc1cccs1)N[C@@H](Cn1cc(C(=O)O)nn1)B(O)O [S02030]
Ki [7]: 160 ± 10 nM | Ki [8]: 110 ± 4 nM | Ki [9]: 44.5 nM and 44 nM and 45 nM | half-life at 2.5 μM [10]: 9 h | IC50 [11]: 80 nM | IC50 [12]: 130 nM | half-life [13]: 8 h | Ki [14]: < 1000 nM | Ki [15]: 28 ± 2 nM

CC(C)(O/N=C(\C(=O)N[C@@H]1C(=O)N2C(C(=O)[O-])=C(C[N+]3(CCNC(=O)c4ccc(O)c(O)c4Cl)CCCC3)CS[C@H]12)c1csc(N)n1)C(=O)O [cefiderocol]
MIC [16]: 1 µg/mL | MIC [17]: 0.5 µg/mL | MIC [18]: 1 µg/mL | MIC [19]: 0.5 µg/mL | MIC [20]: 2 µg/mL | kcat [21]: 0.60 s^–1

ADC-162 (Acinetobacter baumannii)
kcat/Km ([1]; other: ADC-162, substrate): 2800 M⁻¹ s⁻¹ | Km ([2]; other: ADC-162, substrate): 382.0 ± 26.4 µM | kcat ([2]; other: ADC-162, substrate): 656 ± 22.8 s⁻¹ | kcat/Km ([2]; other: ADC-162, substrate): 1.72e+06 ± 180000 M⁻¹ s⁻¹ | Km ([3]; other: ADC-162, substrate): 88.1 ± 8.06 µM | kcat ([3]; other: ADC-162, substrate): 591 ± 20 s⁻¹ | kcat/Km ([3]; other: ADC-162, substrate): 6.71e+06 ± 840000 M⁻¹ s⁻¹ | kcat/Km ([4]; other: ADC-162, substrate): < 1000 M⁻¹ s⁻¹ | kcat/Km ([5]; other: ADC-162, substrate): 3400 M⁻¹ s⁻¹ | kcat/Km ([6]; other: ADC-162, substrate): < 1000 M⁻¹ s⁻¹

ADC-30 (Acinetobacter baumannii)
kcat/Km ([1]; other: ADC-30, substrate): 4900 M⁻¹ s⁻¹ | Km ([2]; other: ADC-30, substrate): 174.8 ± 8.8 µM | kcat ([2]; other: ADC-30, substrate): 763 ± 16.5 s⁻¹ | kcat/Km ([2]; other: ADC-30, substrate): 4.36e+06 ± 310000 M⁻¹ s⁻¹ | Km ([3]; other: ADC-30, substrate): 46.3 ± 3.7 µM | kcat ([3]; other: ADC-30, substrate): 538 ± 12.9 s⁻¹ | kcat/Km ([3]; other: ADC-30, substrate): 1.16e+07 ± 1.21e+06 M⁻¹ s⁻¹ | kcat/Km ([4]; other: ADC-30, substrate): < 1000 M⁻¹ s⁻¹ | kcat/Km ([5]; other: ADC-30, substrate): 3300 M⁻¹ s⁻¹ | kcat/Km ([6]; other: ADC-30, substrate): < 1000 M⁻¹ s⁻¹
